Source: patent US20050152898A1 (BIOVATION, published 2005)
Positions count from the first letter of the chain named.

T1: CD52 human leukocyte antigen (human, UniProt P31358 25-36)
T1 construct: whole, on cells; also called CD52 antigen
T1 chain (looked up): GQNDTSQTSSPS

B1: DIVH2/DIVK2 (antibody, human IgG1, V domains shown)
VH: EVQLLESGGGLVQPGGSLRLSCAGSGFTFTDFYMNWIRQPPGKAPEWIGFIRDKAKGYTTEYNPSVKGRFTISRDNSKNTLYLQMNSLRAEDTAVYYCAREGHTAAPFDYWGQGTLVTVSS
VL: DIQMTQSPSSLSASVGDRVTITCKASQNIDKYLNWYQQKPGKAPKLLIYNTNNLQTGVPSRFSGSGSGTDFTLTISSLQPEDIATYYCLQHISRPRTFGTGTKLELK
notes: also called DIVH2IDIVK2; DIVHv2/DIVKv2
B2: DIVH3/DIVK4 (antibody, human IgG1, V domains shown)
VH: EVKLQESGGGLVQPGGSMRISCSGSGFTFTDFYMNWIRQPPGKGPEWIGFIRDKAKGYTTEYNPSVKGRFTISRDNTQNTLHLQANTLRAEDTAVYYCAREGHTAAPFDYWGQGTTVTVSS
VL: B1 VL with L46S
notes: also called DIVHv3/DIVKv4
B3: DIVH3/DIVK1 (antibody, human IgG1, V domains shown)
VH: B2 VH
VL: B1 VL with K24R, L46S, T56S
notes: also called DIVHv3/DIVKv1
B4: DIVH3/DIVK5 (antibody, human IgG1, V domains shown)
VH: B2 VH
VL: B1 VL with A43S
notes: also called DIVHv3/DIVKv5
B5: DIVH2/DIVK3 (antibody, human IgG1, V domains shown)
VH: B1 VH
VL: B1 VL with K24R, T56S
notes: also called DIVHv2/DIVKv3
B6: DIVH5/DIVK1 (antibody, human IgG1, V domains shown)
VH: B1 VH with I48L
VL: B1 VL with K24R, L46S, T56S
notes: also called DIVHv5/DIVKv1
B7: DIVH5/DIVK4 (antibody, human IgG1, V domains shown)
VH: B1 VH with I48L
VL: B1 VL with L46S
notes: also called DIVHv5/DIVKv4
B8: DIVH1/DIVK1 (antibody, human IgG1, V domains shown)
VH: B1 VH with I37V, P40A, A44G, P45L, I48V
VL: B1 VL with K24R, L46S, T56S
notes: also called DIVHv1/DIVKv1
B9: DIVH5/DIVK3 (antibody, human IgG1, V domains shown)
VH: B1 VH with I48L
VL: B1 VL with K24R, T56S
notes: also called DIVHv5/DIVKv3
B10: DIVH2/DIVK1 (antibody, human IgG1, V domains shown)
VH: B1 VH
VL: B1 VL with K24R, L46S, T56S
notes: also called DIVHv2/DIVKv1
B11: DIVH4/DIVK4 (antibody, human IgG1, V domains shown)
VH: B1 VH with I37V, P40A, A44G, P45L, I48V, S77A, T80S
VL: B1 VL with L46S
notes: also called DIVHv4/DIVKv4
B12: DIVH3/DIVK2 (antibody, human IgG1, V domains shown)
VH: B2 VH
VL: B1 VL
notes: also called DIVHv3/DIVKv2
B13: DIVH5/DIVK2 (antibody, human IgG1, V domains shown)
VH: B1 VH with I48L
VL: B1 VL
notes: also called DIVHv5/DIVKv2
B14: DIVH2/DIVK5 (antibody, human IgG1, V domains shown)
VH: B1 VH
VL: B1 VL with A43S
notes: also called DIVHv2/DIVKv5; CAMPATH-1G DIVHv2/DIVKv5
B15: DIVH4/DIVK3 (antibody, human IgG1, V domains shown)
VH: B1 VH with I37V, P40A, A44G, P45L, I48V, S77A, T80S
VL: B1 VL with K24R, T56S
notes: also called DIVHv4/DIVKv3
B16: DIVH4/DIVK2 (antibody, human IgG1, V domains shown)
VH: B1 VH with I37V, P40A, A44G, P45L, I48V, S77A, T80S
VL: B1 VL
notes: also called DIVHv4/DIVKv2
B17: DIVH1/DIVK4 (antibody, human IgG1, V domains shown)
VH: B1 VH with I37V, P40A, A44G, P45L, I48V
VL: B1 VL with L46S
notes: also called DIVHv1/DIVKv4
B18: DIVH4/DIVK5 (antibody, human IgG1, V domains shown)
VH: B1 VH with I37V, P40A, A44G, P45L, I48V, S77A, T80S
VL: B1 VL with A43S
notes: also called DIVHv4/DIVKv5
B19: DIVH1/DIVK2 (antibody, human IgG1, V domains shown)
VH: B1 VH with I37V, P40A, A44G, P45L, I48V
VL: B1 VL
notes: also called DIVHv1/DIVKv2
B20: DIVH4/DIVK1 (antibody, human IgG1, V domains shown)
VH: B1 VH with I37V, P40A, A44G, P45L, I48V, S77A, T80S
VL: B1 VL with K24R, L46S, T56S
notes: also called DIVHv4/DIVKv1
B21: DIVH5/DIVK5 (antibody, human IgG1, V domains shown)
VH: B1 VH with I48L
VL: B1 VL with A43S
notes: also called DIVHv5/DIVKv5
B22: DIVH1/DIVK3 (antibody, human IgG1, V domains shown)
VH: B1 VH with I37V, P40A, A44G, P45L, I48V
VL: B1 VL with K24R, T56S
notes: also called DIVHv1/DIVKv3
B23: DIVH2/DIVK4 (antibody, human IgG1, V domains shown)
VH: B1 VH
VL: B1 VL with L46S
notes: also called DIVHv2/DIVKv4
B24: DIVH1/DIVK5 (antibody, human IgG1, V domains shown)
VH: B1 VH with I37V, P40A, A44G, P45L, I48V
VL: B1 VL with A43S
notes: also called DIVHv1/DIVKv5

Biological target: T1, CD52 human leukocyte antigen
Assay: FACS on HUT-78 cells (CD52+), FITC anti-human IgG Fc, median fluorescence, 4-parameter fit; titre = 50% of maximum binding
Protocol: Human T-cell lymphoma cell line HUT-78 is CD52 positive and was used to assess binding of the modified antibodies of the present invention. In the present example, different concentrations of test antibody were incubated with the cells and the amount of bound antibody was assessed following incubation with a fluorescent-labelled reporter reagent. The reporter is measured using a fluorescence activated cell sorter (FACS).
For detection, the cells were incubated for 1 hour on ice with a 1:1000 dilution of FITC-labelled anti-human IgG Fc domain. This reagent is a goat anti-human IgG (Fc specific) obtained from Sigma (Poole, UK). The cells were washed as previously and re-suspended in 100 μl of PBS/2% FBS and transferred to 4 ml FACS tubes (Becton Dickinson) containing 900 μl of PBS/2% FBS/Propidium Iodide (1:1000). The cells were analysed using a conventional Becton Dickenson FACS Calibur instrument.
The binding of the test and control antibodies was determined using the Median Fluorescence value. The saturating concentration of antibody was determined from plots of the Median Fluorescence—Zero Antibody Median Fluorescence versus Concentration of antibody. The binding curves were fitted to a logistic 4 parameter sigmoidal equation using SigmaPlot, giving an excellent fit with 95% confidence levels.

EC50 [µg/mL] | Binder
3.7 | B1
8.63 | B2
9.6 | B3
3.3 | B4
3.89 | B5
4.01 | B6
4.05 | B7
2.99 | B8
2.55 | B9
5.56 | B10
8.54 | B11
17.8 | B12
2.45 | B13
1.18 | B14
2.28 | B15
1.59 | B16
3.45 | B17
2.39 | B18
1.66 | B19
4.43 | B20
3 | B21
1.71 | B22
6.21 | B23
1.85 | B24
